Measurements published in patent US10583180B2, “Method for treating adenosine deaminase severe combined imunodeficiency” (UCL Business PLC, priority 2015, dated 2020).
Entries after “also recorded” stand apart in the source; their conditions may differ.

Key:
[1] = test system: ADA-deficient SCID; test: Phase I/II clinical trial of autologous CD34+ cells transduced with EFS-ADA lentiviral vector; assay type: in vivo, human; details: weight adjusted dose prior to reinfusion
Text: For the non-controlled, non-randomised Phase I/II clinical trial, to assess the safety and efficacy of autologous transplantation of CD34+ cells from ADA-deficient SCID infants following human ADA cDNA transfer by the EFS-ADA lentiviral vector, subjects received the infusion of their autologous, transduced cells following marrow cytoreduction with busulfan.
Patients were selected on the basis of inclusion and exclusion criteria detailed below. A back-up harvest was retained in case of failure of reconstitution following conditioning and re-infusion of transduced cells. For the transduction protocol, CD34+ cells were purified from G-CSF mobilised PBSCs recovered by leukapheresis (Plerixafor could be added to enhance mobilization), whenever possible or from bone marrow harvested under general anaesthetic. Back up cells of 3×10^6 CD34+/kg were stored from a single procedure if sufficient cell counts were available (and if not previously stored). The remaining CD34+ cells were taken forward for transduction. […] After purification, CD34+ cells were immediately transduced with the lentiviral vector, then evaluated for sterility, cell count, and viability, and immediately infused into patients. Several other tests for safety including testing for RCLs were performed on reinfused cells and results recorded retrospectively. […]

[2] = test system: ADA−/− mice; test: Reconstitution of lethally irradiated ADA−/− mice with transduced lin-ve cells, analysed after 12 weeks; details: mouse, in vivo
Text: Early models of ADA deficient mice were limited by embryonic or peri-natal lethality as a result of severe hepatocellular and pulmonary damage. A two stage transgenic strategy in which ADA expression is restricted to trophoblasts rescues ADA null mice from pre- and peri-natal lethality and allows post-natal study of mice lacking ADA expression. In this model, many features of the human disease are accurately represented. Mice show abnormalities of thymic architecture with a significant block in thymocyte development at the CD4-CD8- double negative stage. […] In the periphery, there is a profound lymphopaenia with a severe T, B and NK cell deficiency that is seen in humans together with abnormalities in splenic lymphoid architecture and a paucity of splenic T cell populations. Murine ADA deficiency also manifests a number of non-immunological abnormalities including lung, renal, costochondral and neurological changes. Pulmonary problems are present in mice from ˜postnatal day 12 and are associated with significant lung inflammatory changes, eventually leading to the death of mice by postnatal day 22 from pulmonary insufficiency, unless early treatment is initiated. […] Mice were analysed after 12 weeks and compared with ADA−/− mice, mice that had undergone wild type transplant experiments (WT) or mice that had been treated with enzyme replacement therapy alone. […]

[3] = test system: ADA-SCID patients; details: cited from earlier work

CS(=O)(=O)OCCCCOS(C)(=O)=O [Busulfan]
toxicities of conditioning [1]: No toxicities; also recorded: without any significant toxicity

B1: PEG-ADA: bovine form of ADA conjugated to polyethylene glycol; enzyme replacement therapy (conjugate, UniProt P56658 2-363, looked up)
Adenosine deaminase: AQTPAFNKPKVELHVHLDGAIKPETILYYGRKRGIALPADTPEELQNIIGMDKPLSLPEFLAKFDYYMPAIAGCREAVKRIAYEFVEMKAKDGVVYVEVRYSPHLLANSKVEPIPWNQAEGDLTPDEVVSLVNQGLQEGERDFGVKVRSILCCMRHQPSWSSEVVELCKKYREQTVVAIDLAGDETIEGSSLFPGHVKAYAEAVKSGVHRTVHAGEVGSANVVKEAVDTLKTERLGHGYHTLEDATLYNRLRQENMHFEVCPWSSYLTGAWKPDTEHPVVRFKNDQVNYSLNTDDPLIFKSTLDTDYQMTKNEMGFTEEEFKRLNINAAKSSFLPEDEKKELLDLLYKAYGMPSPASAEQCL
modifications: PEG conjugate (pegademase bovine)
notes: bovine form of ADA conjugated to polyethylene glycol; enzyme replacement therapy
T cells in the mononuclear fraction of peripheral blood [2]: marked increase in T cell recovery | overall probability of surviving 20 years on ERT ([3]; estimated): 78% | enzyme activity on a ml to ml basis relative to packed erythrocytes ([3]; in vivo): ~1800 times | patients developing antibodies against bovine epitopes ([3]; in vivo): ~50% | probability of surviving the next 12 years ([3]; patient alive 6 months after starting ERT): about 90%
